# From article PMC4609290 (Molecular cell, 2015)
# What was measured:
# [1] = target: T1, AF10PZP (Homo sapiens, UniProt P55197); assay: Histone peptide pull-down with AF10PZP; format: binding; conditions: biotinylated H3 peptides, Western blot; GST-AF10PZP
# T1 sequence (P55197 18-208 isoform P55197-1): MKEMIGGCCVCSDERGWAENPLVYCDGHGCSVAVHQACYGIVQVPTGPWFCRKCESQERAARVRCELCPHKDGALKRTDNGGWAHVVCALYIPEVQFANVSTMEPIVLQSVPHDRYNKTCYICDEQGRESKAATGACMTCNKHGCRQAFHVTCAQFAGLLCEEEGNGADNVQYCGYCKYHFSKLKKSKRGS
# [2] = target: T1, AF10PZP; assay: ITC binding of H3 peptides to AF10PZP; conditions: standard deviation derived from nonlinear fitting
# [3] = system: AF17PZP; assay: Histone peptide pull-down with AF17PZP; format: binding, human; conditions: biotinylated H3 peptides, Western blot
# [4] = target: T1, AF10PZP; assay: Binding of minimal H3 peptide to the PZP domain; conditions: Figure S1D
# [5] = system: JADE1PZP; assay: Histone peptide pull-down with JADE1PZP; format: binding, human; conditions: biotinylated H3 peptides, Western blot
Substance,binding to AF10PZP (peptide pull-down) [1],Kd [2],binding to AF17PZP (peptide pull-down) [3],binding of minimal peptide to the PZP domain [4],binding to JADE1PZP (peptide pull-down) [5]
H3_15-34 di-methylation at K27: H3_15-34 peptide with di-methylation at K27,abolished,could no longer be detected,abolished,–,–
"H3(1-36) peptide spanning residues A21 to K27: minimal peptide, segment of H3(1-36) spanning residues A21 to K27 (ATKAARK; UniProt P68431 22-28, looked up, fragment)",–,–,–,"sufficient for binding, though with weaker affinity than the longer peptide",–
"H3K27 acetylated: Acetylation of H3K27, H3 (aa 15-34) peptides",disrupted recognition,–,disrupted recognition,–,–
H3_1-21: peptide spanning amino acids 1-21 (H3_1-21; the very N-terminus of H3),did not bind,–,did not bind,–,bound as expected
